Data reported in the supplement of paper PMC9112550, “Optimization of the antimicrobial peptide Bac7 by deep mutational scanning” (BMC Biology, 2022).

These sequences were tested on Escherichia coli TOP10 (assay: shrunken log2 fold change of peptide-encoding DNA abundance (4.5 h post-induction vs induction); higher = less antimicrobial activity (less host growth inhibition)). Conditions: time post-induction: 4.5 h; library: site-saturation at positions 5, 18, 19, 20.
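Note: peptides expressed intracellularly from a pBAD plasmid library in pooled LB shake-flask culture, induced with 0.3% L-arabinose, DNA abundance read by NGS, three biological replicates, DESeq2 with apeglm shrinkage.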

| Sequence | shrunken log2 fold change |
| --- | --- |
| RRIRRRPPRLPRPRPRPWGTPRP | -0.0589 |
| RRIRDRPPRLPRPRPRPQILPRP | 0.132 |
| RRIRNRPPRLPRPRPRPDFIPRP | -0.111 |
| RRIRTRPPRLPRPRPRPNHSPRP | -0.925 |
| RRIRHRPPRLPRPRPRPTAMPRP | 0.148 |
| RRIRMRPPRLPRPRPRPLNYPRP | -0.124 |
| RRIRHRPPRLPRPRPRPGCWPRP | 0.434 |
| RRIRDRPPRLPRPRPRPYSSPRP | -0.152 |
| RRIRDRPPRLPRPRPRPNGTPRP | 0.00868 |
| RRIRRRPPRLPRPRPRPMTMPRP | 0.0735 |
| RRIRDRPPRLPRPRPRPKALPRP | -0.00674 |
| RRIRPRPPRLPRPRPRPWQGPRP | -0.00211 |
| RRIRGRPPRLPRPRPRPAGLPRP | 0.479 |
| RRIRIRPPRLPRPRPRPIYRPRP | -0.191 |
| RRIRRRPPRLPRPRPRPDCFPRP | 0.681 |
| RRIRKRPPRLPRPRPRPNDYPRP | -0.115 |
| RRIRSRPPRLPRPRPRPSMRPRP | 0.369 |
| RRIRKRPPRLPRPRPRPEKKPRP | -0.018 |
| RRIRQRPPRLPRPRPRPHVSPRP | -0.108 |
| RRIRQRPPRLPRPRPRPLERPRP | 0.0228 |
| RRIRHRPPRLPRPRPRPYTQPRP | -0.711 |
| RRIRKRPPRLPRPRPRPVAIPRP | 0.265 |
| RRIRFRPPRLPRPRPRPEYRPRP | -0.218 |
| RRIRRRPPRLPRPRPRPWEAPRP | 0.155 |
| RRIRIRPPRLPRPRPRPQRSPRP | -0.0897 |

| Sequence | shrunken log2 fold change |
| --- | --- |
| RRIRKRPPRLPRPRPRPQSAPRP | 0.319 |
| RRIRSRPPRLPRPRPRPHIFPRP | -0.197 |
| RRIRPRPPRLPRPRPRPPLAPRP | 0.513 |
| RRIRVRPPRLPRPRPRPANCPRP | 0.031 |
| RRIRWRPPRLPRPRPRPGKFPRP | 0.26 |
| RRIRPRPPRLPRPRPRPHHAPRP | -0.125 |
| RRIRFRPPRLPRPRPRPPFPPRP | 0.454 |
| RRIRERPPRLPRPRPRPYWFPRP | -1.02 |
| RRIRQRPPRLPRPRPRPGWIPRP | 0.179 |
| RRIRIRPPRLPRPRPRPDKHPRP | -0.979 |
| RRIRMRPPRLPRPRPRPYWTPRP | -0.354 |
| RRIRDRPPRLPRPRPRPQRTPRP | 0.0905 |
| RRIRVRPPRLPRPRPRPRMEPRP | 0.413 |
| RRIRDRPPRLPRPRPRPSYDPRP | -0.175 |
| RRIRWRPPRLPRPRPRPTQCPRP | 0.115 |
| RRIRGRPPRLPRPRPRPFHKPRP | -0.411 |
| RRIRCRPPRLPRPRPRPHATPRP | 0.204 |
| RRIRARPPRLPRPRPRPPTEPRP | 1.2 |
| RRIRKRPPRLPRPRPRPVYSPRP | 0.0204 |
| RRIRFRPPRLPRPRPRPFQPPRP | -0.334 |
| RRIRERPPRLPRPRPRPTVVPRP | -0.188 |
| RRIRDRPPRLPRPRPRPTYDPRP | -0.208 |
| RRIRNRPPRLPRPRPRPLWGPRP | -0.192 |
| RRIRWRPPRLPRPRPRPSLYPRP | -0.402 |
| RRIRIRPPRLPRPRPRPCYPPRP | -0.428 |

| Sequence | shrunken log2 fold change |
| --- | --- |
| RRIRDRPPRLPRPRPRPFSNPRP | -0.0771 |
| RRIRGRPPRLPRPRPRPMVFPRP | 0.78 |
| RRIRWRPPRLPRPRPRPYMLPRP | -0.298 |
| RRIRVRPPRLPRPRPRPHRIPRP | -0.0697 |
| RRIRDRPPRLPRPRPRPMKYPRP | 0.0311 |
| RRIRKRPPRLPRPRPRPRHFPRP | 0.0965 |
| RRIRMRPPRLPRPRPRPDMPPRP | -0.0178 |
| RRIRYRPPRLPRPRPRPRKIPRP | -0.483 |
| RRIRLRPPRLPRPRPRPQWGPRP | 0.00618 |
| RRIRQRPPRLPRPRPRPERNPRP | 0.0526 |
| RRIRLRPPRLPRPRPRPHNIPRP | -0.049 |
| RRIRWRPPRLPRPRPRPRFRPRP | 0.314 |
| RRIRGRPPRLPRPRPRPLKNPRP | 0.459 |
| RRIRARPPRLPRPRPRPALTPRP | 0.642 |
| RRIRTRPPRLPRPRPRPIIVPRP | -0.0629 |
| RRIRTRPPRLPRPRPRPYYCPRP | -0.249 |
| RRIRKRPPRLPRPRPRPKQPPRP | -0.0354 |
| RRIRERPPRLPRPRPRPRLRPRP | 0.25 |
| RRIRIRPPRLPRPRPRPGMVPRP | 0.0533 |
| RRIRLRPPRLPRPRPRPRNPPRP | -0.0997 |
| RRIRYRPPRLPRPRPRPWPQPRP | 0.0526 |
| RRIRLRPPRLPRPRPRPCYPPRP | -0.661 |
| RRIRCRPPRLPRPRPRPITPPRP | -0.219 |
| RRIRFRPPRLPRPRPRPVFHPRP | -0.598 |
| RRIRFRPPRLPRPRPRPIKPPRP | -0.4 |

| Sequence | shrunken log2 fold change |
| --- | --- |
| RRIRKRPPRLPRPRPRPCSHPRP | 0.0663 |
| RRIRGRPPRLPRPRPRPTRQPRP | 0.577 |
| RRIRGRPPRLPRPRPRPTELPRP | 0.261 |
| RRIRRRPPRLPRPRPRPSQHPRP | 0.0591 |
| RRIRCRPPRLPRPRPRPCIHPRP | -0.415 |
| RRIRSRPPRLPRPRPRPCQMPRP | 0.0312 |
| RRIRERPPRLPRPRPRPKINPRP | -0.488 |
| RRIRERPPRLPRPRPRPYNSPRP | -0.0287 |
| RRIRWRPPRLPRPRPRPARYPRP | -0.0422 |
| RRIRLRPPRLPRPRPRPCKWPRP | 0.117 |
| RRIRFRPPRLPRPRPRPTEPPRP | 0.00236 |
| RRIRLRPPRLPRPRPRPEPLPRP | 0.0706 |
| RRIRLRPPRLPRPRPRPICPPRP | 0.00212 |
| RRIRQRPPRLPRPRPRPPMRPRP | 0.862 |
| RRIRCRPPRLPRPRPRPSPMPRP | 0.0865 |
| RRIRFRPPRLPRPRPRPCGYPRP | -0.0542 |
| RRIRYRPPRLPRPRPRPDKPPRP | -0.0375 |
| RRIRPRPPRLPRPRPRPRLPPRP | 0.383 |
| RRIRERPPRLPRPRPRPLRIPRP | -0.277 |
| RRIRERPPRLPRPRPRPPWQPRP | 0.0988 |
| RRIRCRPPRLPRPRPRPHVNPRP | -0.497 |
| RRIRIRPPRLPRPRPRPMTSPRP | -0.0513 |
| RRIRTRPPRLPRPRPRPHYYPRP | -0.744 |
| RRIRCRPPRLPRPRPRPRRTPRP | 0.54 |
| RRIRVRPPRLPRPRPRPEVDPRP | 0.296 |

| Sequence | shrunken log2 fold change |
| --- | --- |
| RRIRSRPPRLPRPRPRPQLPPRP | 0.53 |
| RRIRHRPPRLPRPRPRPTMTPRP | -0.29 |
| RRIRPRPPRLPRPRPRPQHLPRP | -0.172 |
| RRIRLRPPRLPRPRPRPWCCPRP | -0.234 |
| RRIRDRPPRLPRPRPRPQVKPRP | -0.0431 |
| RRIRYRPPRLPRPRPRPHAPPRP | -0.0159 |
| RRIRSRPPRLPRPRPRPGTLPRP | -0.571 |
| RRIRIRPPRLPRPRPRPICIPRP | -0.127 |
| RRIRRRPPRLPRPRPRPLGRPRP | -0.143 |
| RRIRTRPPRLPRPRPRPWNWPRP | 0.0309 |
| RRIRYRPPRLPRPRPRPKKDPRP | -0.719 |
| RRIRSRPPRLPRPRPRPFFHPRP | -0.498 |
| RRIRVRPPRLPRPRPRPCMWPRP | 0.0384 |
| RRIRWRPPRLPRPRPRPKTPPRP | 0.894 |
| RRIRQRPPRLPRPRPRPNTQPRP | -0.621 |
| RRIRTRPPRLPRPRPRPAMCPRP | 0.131 |
| RRIRYRPPRLPRPRPRPYSLPRP | -0.335 |
| RRIRQRPPRLPRPRPRPHDEPRP | -0.158 |
| RRIRCRPPRLPRPRPRPNDSPRP | -0.221 |
| RRIRCRPPRLPRPRPRPNDMPRP | -0.328 |
| RRIRLRPPRLPRPRPRPDIMPRP | -0.0927 |
| RRIRMRPPRLPRPRPRPEFWPRP | 0.893 |
| RRIRVRPPRLPRPRPRPTLAPRP | 0.797 |
| RRIRHRPPRLPRPRPRPSCAPRP | 0.137 |
| RRIRERPPRLPRPRPRPYAHPRP | -0.0128 |

| Sequence | shrunken log2 fold change |
| --- | --- |
| RRIRNRPPRLPRPRPRPWEEPRP | -0.00133 |
| RRIRKRPPRLPRPRPRPEREPRP | 0.671 |
| RRIRWRPPRLPRPRPRPNGFPRP | 0.128 |
| RRIRMRPPRLPRPRPRPQQSPRP | 0.0524 |
| RRIRWRPPRLPRPRPRPGGNPRP | 0.0972 |
| RRIRERPPRLPRPRPRPRYHPRP | -0.0105 |
| RRIRERPPRLPRPRPRPYIYPRP | -0.254 |
| RRIRMRPPRLPRPRPRPCSPPRP | 0.0324 |
| RRIRWRPPRLPRPRPRPEETPRP | 0.0603 |
| RRIRTRPPRLPRPRPRPVGGPRP | 0.837 |
| RRIRTRPPRLPRPRPRPRGVPRP | 0.196 |
| RRIRWRPPRLPRPRPRPECNPRP | 0.457 |
| RRIRIRPPRLPRPRPRPFMGPRP | -0.438 |
| RRIRYRPPRLPRPRPRPFAFPRP | -1.05 |
| RRIRIRPPRLPRPRPRPWRHPRP | -0.083 |
| RRIRVRPPRLPRPRPRPKMSPRP | -0.122 |
| RRIRLRPPRLPRPRPRPHLQPRP | -0.0975 |
| RRIRSRPPRLPRPRPRPQFVPRP | -0.184 |
| RRIRIRPPRLPRPRPRPKVMPRP | -0.206 |
| RRIRARPPRLPRPRPRPNKEPRP | -0.211 |
| RRIRYRPPRLPRPRPRPLVHPRP | 0.0162 |
| RRIRHRPPRLPRPRPRPKHSPRP | -0.347 |
| RRIRMRPPRLPRPRPRPTDQPRP | 1.46 |
| RRIRKRPPRLPRPRPRPKKEPRP | 0.00375 |
| RRIRNRPPRLPRPRPRPVKDPRP | -0.01 |
